Source: patent publication US20180016327A1 (Chugai, published 2018)

B1: CFP0018 (antibody, V domains shown)
VH: QVQLVQSGAEVKKPGSSVKVSCKASGGTFSSYAISWVRQAPGQGLEWMGGIIPIFGTANYAQKFQGRVTITADESTSTAYMELSSLRSEDTAVYYCARQLYGYYELDIWGQGTLVTVSS
VL: DIQMTQSPSSLSASVGDRVTITCRASQSISDDLAWYQQKPGKAPKLLIYEASSLQSGVPSRFSGSGSGTDFTLTISSLQPEDFATYYCQQYNSYPLTFGQGTKVEIK
notes: IgG format
B2: CFP0018 18L 30P (antibody, V domains shown)
VH: QVQLVQSGAEVKKPGSSVKVSCKASGGTFSSYAISWVRQAPGQGLEWMGGIIPIFGTANYAQKFQGRVTITADESTSTAYMELSSLRSEDTAVYYCARQLYGYYELDIWGQGTLVTVSS
VL: DIQMTQSPSSLSASVGDRVTITCRASQSIPDDLAWYQQKPGKAPKLLIYEASSLQSGVPSRFSGSGSGTDFTLTISSLQPEDFATYYCQQYNSYPLTFGQGTKVEIK
B3: CFP0017 17L 30A (antibody, V domains shown)
VH: QVQLVQSGAEVKKPGSSVKVSCKASGGTFSSYAISWVRQAPGQGLEWMGGIIPIFGTANYAQKFQGRVTITADESTSTAYMELSSLRSEDTAVYYCARGGWWGGALDYWGQGTLVTVSS
VL: DIQMTQSPSSLSASVGDRVTITCRASQSIADDLAWYQQKPGKAPKLLIYHASSLQSGVPSRFSGSGSGTDFTLTISSLQPEDFATYYCQQSDSYPLTFGQGTKVEIK
B4: CFP0017 17L 30S (antibody, V domains shown)
VH: QVQLVQSGAEVKKPGSSVKVSCKASGGTFSSYAISWVRQAPGQGLEWMGGIIPIFGTANYAQKFQGRVTITADESTSTAYMELSSLRSEDTAVYYCARGGWWGGALDYWGQGTLVTVSS
VL: DIQMTQSPSSLSASVGDRVTITCRASQSISDDLAWYQQKPGKAPKLLIYHASSLQSGVPSRFSGSGSGTDFTLTISSLQPEDFATYYCQQSDSYPLTFGQGTKVEIK
B5: CFP0017 17L 30D (antibody, V domains shown)
VH: QVQLVQSGAEVKKPGSSVKVSCKASGGTFSSYAISWVRQAPGQGLEWMGGIIPIFGTANYAQKFQGRVTITADESTSTAYMELSSLRSEDTAVYYCARGGWWGGALDYWGQGTLVTVSS
VL: DIQMTQSPSSLSASVGDRVTITCRASQSIDDDLAWYQQKPGKAPKLLIYHASSLQSGVPSRFSGSGSGTDFTLTISSLQPEDFATYYCQQSDSYPLTFGQGTKVEIK
B6: CFP0017 17L 50A (antibody, V domains shown)
VH: QVQLVQSGAEVKKPGSSVKVSCKASGGTFSSYAISWVRQAPGQGLEWMGGIIPIFGTANYAQKFQGRVTITADESTSTAYMELSSLRSEDTAVYYCARGGWWGGALDYWGQGTLVTVSS
VL: DIQMTQSPSSLSASVGDRVTITCRASQSIEDDLAWYQQKPGKAPKLLIYAASSLQSGVPSRFSGSGSGTDFTLTISSLQPEDFATYYCQQSDSYPLTFGQGTKVEIK
B7: CFP0018 18L 30D (antibody, V domains shown)
VH: QVQLVQSGAEVKKPGSSVKVSCKASGGTFSSYAISWVRQAPGQGLEWMGGIIPIFGTANYAQKFQGRVTITADESTSTAYMELSSLRSEDTAVYYCARQLYGYYELDIWGQGTLVTVSS
VL: DIQMTQSPSSLSASVGDRVTITCRASQSIDDDLAWYQQKPGKAPKLLIYEASSLQSGVPSRFSGSGSGTDFTLTISSLQPEDFATYYCQQYNSYPLTFGQGTKVEIK
B8: CFP0017 (antibody, V domains shown)
VH: QVQLVQSGAEVKKPGSSVKVSCKASGGTFSSYAISWVRQAPGQGLEWMGGIIPIFGTANYAQKFQGRVTITADESTSTAYMELSSLRSEDTAVYYCARGGWWGGALDYWGQGTLVTVSS
VL: DIQMTQSPSSLSASVGDRVTITCRASQSIEDDLAWYQQKPGKAPKLLIYHASSLQSGVPSRFSGSGSGTDFTLTISSLQPEDFATYYCQQSDSYPLTFGQGTKVEIK
notes: IgG format
B9: CFP0017 17L 91H (antibody, V domains shown)
VH: QVQLVQSGAEVKKPGSSVKVSCKASGGTFSSYAISWVRQAPGQGLEWMGGIIPIFGTANYAQKFQGRVTITADESTSTAYMELSSLRSEDTAVYYCARGGWWGGALDYWGQGTLVTVSS
VL: DIQMTQSPSSLSASVGDRVTITCRASQSIEDDLAWYQQKPGKAPKLLIYHASSLQSGVPSRFSGSGSGTDFTLTISSLQPEDFATYYCQQHDSYPLTFGQGTKVEIK
B10: CFP0018 18L 30A (antibody, V domains shown)
VH: QVQLVQSGAEVKKPGSSVKVSCKASGGTFSSYAISWVRQAPGQGLEWMGGIIPIFGTANYAQKFQGRVTITADESTSTAYMELSSLRSEDTAVYYCARQLYGYYELDIWGQGTLVTVSS
VL: DIQMTQSPSSLSASVGDRVTITCRASQSIADDLAWYQQKPGKAPKLLIYEASSLQSGVPSRFSGSGSGTDFTLTISSLQPEDFATYYCQQYNSYPLTFGQGTKVEIK
B11: CFP0018 18L 30H (antibody, V domains shown)
VH: QVQLVQSGAEVKKPGSSVKVSCKASGGTFSSYAISWVRQAPGQGLEWMGGIIPIFGTANYAQKFQGRVTITADESTSTAYMELSSLRSEDTAVYYCARQLYGYYELDIWGQGTLVTVSS
VL: DIQMTQSPSSLSASVGDRVTITCRASQSIHDDLAWYQQKPGKAPKLLIYEASSLQSGVPSRFSGSGSGTDFTLTISSLQPEDFATYYCQQYNSYPLTFGQGTKVEIK
B12: CFP0018 18L 30N (antibody, V domains shown)
VH: QVQLVQSGAEVKKPGSSVKVSCKASGGTFSSYAISWVRQAPGQGLEWMGGIIPIFGTANYAQKFQGRVTITADESTSTAYMELSSLRSEDTAVYYCARQLYGYYELDIWGQGTLVTVSS
VL: DIQMTQSPSSLSASVGDRVTITCRASQSINDDLAWYQQKPGKAPKLLIYEASSLQSGVPSRFSGSGSGTDFTLTISSLQPEDFATYYCQQYNSYPLTFGQGTKVEIK
B13: CFP0018 18L 30F (antibody, V domains shown)
VH: QVQLVQSGAEVKKPGSSVKVSCKASGGTFSSYAISWVRQAPGQGLEWMGGIIPIFGTANYAQKFQGRVTITADESTSTAYMELSSLRSEDTAVYYCARQLYGYYELDIWGQGTLVTVSS
VL: DIQMTQSPSSLSASVGDRVTITCRASQSIFDDLAWYQQKPGKAPKLLIYEASSLQSGVPSRFSGSGSGTDFTLTISSLQPEDFATYYCQQYNSYPLTFGQGTKVEIK
B14: CFP0017 17L 92N (antibody, V domains shown)
VH: QVQLVQSGAEVKKPGSSVKVSCKASGGTFSSYAISWVRQAPGQGLEWMGGIIPIFGTANYAQKFQGRVTITADESTSTAYMELSSLRSEDTAVYYCARGGWWGGALDYWGQGTLVTVSS
VL: DIQMTQSPSSLSASVGDRVTITCRASQSIEDDLAWYQQKPGKAPKLLIYHASSLQSGVPSRFSGSGSGTDFTLTISSLQPEDFATYYCQQSNSYPLTFGQGTKVEIK
B15: CFP0017 17L 92S (antibody, V domains shown)
VH: QVQLVQSGAEVKKPGSSVKVSCKASGGTFSSYAISWVRQAPGQGLEWMGGIIPIFGTANYAQKFQGRVTITADESTSTAYMELSSLRSEDTAVYYCARGGWWGGALDYWGQGTLVTVSS
VL: DIQMTQSPSSLSASVGDRVTITCRASQSIEDDLAWYQQKPGKAPKLLIYHASSLQSGVPSRFSGSGSGTDFTLTISSLQPEDFATYYCQQSSSYPLTFGQGTKVEIK
B16: CFP0018 18L 30E (antibody, V domains shown)
VH: QVQLVQSGAEVKKPGSSVKVSCKASGGTFSSYAISWVRQAPGQGLEWMGGIIPIFGTANYAQKFQGRVTITADESTSTAYMELSSLRSEDTAVYYCARQLYGYYELDIWGQGTLVTVSS
VL: DIQMTQSPSSLSASVGDRVTITCRASQSIEDDLAWYQQKPGKAPKLLIYEASSLQSGVPSRFSGSGSGTDFTLTISSLQPEDFATYYCQQYNSYPLTFGQGTKVEIK
B17: CFP0017 17L 50E (antibody, V domains shown)
VH: QVQLVQSGAEVKKPGSSVKVSCKASGGTFSSYAISWVRQAPGQGLEWMGGIIPIFGTANYAQKFQGRVTITADESTSTAYMELSSLRSEDTAVYYCARGGWWGGALDYWGQGTLVTVSS
VL: DIQMTQSPSSLSASVGDRVTITCRASQSIEDDLAWYQQKPGKAPKLLIYEASSLQSGVPSRFSGSGSGTDFTLTISSLQPEDFATYYCQQSDSYPLTFGQGTKVEIK
B18: CFP0018 18L 30Q (antibody, V domains shown)
VH: QVQLVQSGAEVKKPGSSVKVSCKASGGTFSSYAISWVRQAPGQGLEWMGGIIPIFGTANYAQKFQGRVTITADESTSTAYMELSSLRSEDTAVYYCARQLYGYYELDIWGQGTLVTVSS
VL: DIQMTQSPSSLSASVGDRVTITCRASQSIQDDLAWYQQKPGKAPKLLIYEASSLQSGVPSRFSGSGSGTDFTLTISSLQPEDFATYYCQQYNSYPLTFGQGTKVEIK
B19: CFP0017 17L 91Y (antibody, V domains shown)
VH: QVQLVQSGAEVKKPGSSVKVSCKASGGTFSSYAISWVRQAPGQGLEWMGGIIPIFGTANYAQKFQGRVTITADESTSTAYMELSSLRSEDTAVYYCARGGWWGGALDYWGQGTLVTVSS
VL: DIQMTQSPSSLSASVGDRVTITCRASQSIEDDLAWYQQKPGKAPKLLIYHASSLQSGVPSRFSGSGSGTDFTLTISSLQPEDFATYYCQQYDSYPLTFGQGTKVEIK
B20: CFP0017 17L 30H (antibody, V domains shown)
VH: QVQLVQSGAEVKKPGSSVKVSCKASGGTFSSYAISWVRQAPGQGLEWMGGIIPIFGTANYAQKFQGRVTITADESTSTAYMELSSLRSEDTAVYYCARGGWWGGALDYWGQGTLVTVSS
VL: DIQMTQSPSSLSASVGDRVTITCRASQSIHDDLAWYQQKPGKAPKLLIYHASSLQSGVPSRFSGSGSGTDFTLTISSLQPEDFATYYCQQSDSYPLTFGQGTKVEIK
B21: CFP0017 17L 91R (antibody, V domains shown)
VH: QVQLVQSGAEVKKPGSSVKVSCKASGGTFSSYAISWVRQAPGQGLEWMGGIIPIFGTANYAQKFQGRVTITADESTSTAYMELSSLRSEDTAVYYCARGGWWGGALDYWGQGTLVTVSS
VL: DIQMTQSPSSLSASVGDRVTITCRASQSIEDDLAWYQQKPGKAPKLLIYHASSLQSGVPSRFSGSGSGTDFTLTISSLQPEDFATYYCQQRDSYPLTFGQGTKVEIK

Target: T1, human C5 (human, UniProt P01031 19-673; P01031 678-1676, Beta and alpha chains are disulfide-linked and the protein is glycosylated.)
T1 construct: Either in-house recombinant C5 or plasma derived C5 (CALBIOCHEM) was used; also called recombinant human C5; plasma derived human C5
Assay: Biacore, captured antibody, pH 7.4, 37 C;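 further: biacore binding response of anti-C5 antibody light chain variants captured on chip with human C5 injected, ACES running buffer containing 1.2 mM CaCl₂, parent light chain antibody set to 100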

First: B1
Second: B2
The “% binding (parent = 100)” value of the first is lower: 100% for the first, 111% for the second.

Compared with B3, B4 is lower in “% binding (parent = 100)” value: 79.9% for the first, 79.1% for the second.

First: B5
Second: B6
The “% binding (parent = 100)” value of the first is higher: 89.4% for the first, 3.3% for the second.

Going from B7 to B8, the “% binding (parent = 100)” value rises from 17% to 100%.

Compared with B9, B10 is lower in “% binding (parent = 100)” value: 21.8% for the first, 21.2% for the second.

Going from B11 to B12, the “% binding (parent = 100)” value rises from 87.2% to 201%.

Going from B13 to B14, the “% binding (parent = 100)” value falls from 85.2% to 36.4%.

First: B15
Second: B16
The “% binding (parent = 100)” value of the first is higher: 79% for the first, 20.8% for the second.

First: B17
Second: B18
The “% binding (parent = 100)” value of the first is lower: 1% for the first, 130% for the second.

Going from B19 to B20, the “% binding (parent = 100)” value rises from 0.3% to 52.1%.

With B21 the “% binding (parent = 100)” value was -4%.
